The target in this experiment is N2Bus phosphorylated by PKA catalytic subunit or cGMP-activated PKG. Nature of the experiment: pull-down; GST pull-down: purified protein incubated with a GST-fusion protein immobilised on glutathione sepharose beads, 4 °C, 1.5 h; washes in high and low salt buffer; SDS-PAGE and western blot. A general note: In western blotting, separated proteins are transferred to a membrane and probed.

Results on one molecule are retold here after PMC5772059.

B1: recombinant human full-length PP5 (enzyme)
chain: MAMAEGERTECAEPPRDEPPADGALKRAEELKTQANDYFKAKDYENAIKFYSQAIELNPSNAIYYGNRSLAYLRTECYGYALGDATRAIELDKKYIKGYYRRAASNMALGKFRAALRDYETVVKVKPHDKDAKMKYQECNKIVKQKAFERAIAGDEHKRSVVDSLDIESMTIEDEYSGPKLEDGKVTISFMKELMQWYKDQKKLHRKCAYQILVQVKEVLSKLSTLVETTLKETEKITVCGDTHGQFYDLLNIFELNGLPSETNPYIFNGDFVDRGSFSVEVILTLFGFKLLYPDHFHLLRGNHETDNMNQIYGFEGEVKAKYTAQMYELFSEVFEWLPLAQCINGKVLIMHGGLFSEDGVTLDDIRKIERNRQPPDSGPMCDLLWSDPQPQNGRSISKRGVSCQFGPDVTKAFLEENNLDYIIRSHEVKAEGYEVAHGGRCVTVFSAPNYCDQMGNKASYIHLQGSDLRPQFHQFTAVPHPNVKPMAYANTLLQLGMM
On to B1, for which the fold binding against unphosphorylated N2Bus lay within 2 to 3 times.
